This data set in a line: label from the status in PepcDB records.
With “MAVYNPKPEFFRQAVLSVLGQTMPVLELVLVNDGGSDEFKSVLPDDDRIRVFTKPNEGVAATRNFAIKQCRGEYIAFLDQDDYWYSDKLAEQMAMISVKGEACMVISPVDIVDNQGVPIIKQNRKKVTNRYFRKIAHPDIRFPLADGNFIYSSTPLIHRRVFECVGLFDSFTQPHDDWDMYLRIALAGISVHCYRERALSVWRMHDSNESQKRMAMMLSKCEVEWKILQGGVPEPVAKIMHSNLALDQIVMDNLWYNEREFARFRETVRRDLPGLMRCAVNSGRHDRYVTGYRKRAASAIIKSARRYLLSLFSRQR”, the protein production result is listed as “failed”.

As for “MAWFLLVIAGIEEIIAAIAMKYIDGTRKKWPIIVMTVGFGLSFYCLSQAMIVLPAGVAYAVWTGIGSIGVSAVGLIWFKERFQLSQVISLCLILAGVIGLRLTSSS”, the protein production entry is listed as “failed”.

With “MAWGVCDINGSFAGQNPVTTRLSVRRCQWRCVDFAHSKCLRTQNYRVQMRSCRTGVYGSPRGDANEAVPPPHQPKGPLRTMPLETLINAGFVDYLILLIYFVFVLGIGLAARHQVSDSLDFFLSGRSLPGWVTGLAFVSANLGAVEIMGMSANGAQIGIPTVHYFWIGAIPAMVFLGIVMMPFYYGSGVRSVPEFMLKRFGPAAHLVNAISFALAQLLIAGINLYLLGTIVHALLGWPLWVALIVAAMIVLAYISLGGLSAAIYNEVLQFFVIVASLLPLVIIGLHRVGGWSGLKAKITAAAEAHPDVVTPAAQQLHSWPGQALSGFGSPVMSVIGITLGLGFVLSFGYWTTNFVEVQRAMASDSLSSARKTPTIGAFPKMLVPFLTVLPGMLAAVLVPEIARMKAGEKVAGGASGSFVQYNDSVLFLIRNLLPTGLTGVAITGLLAAFMAGMAANISAFNTVFSVDIWQHYVIKDKPDGYYVKVGRIATVIATVVAIGTAFMASGFSNIMDYLQTLFGFFNAPLFATFILGMFWKRSTPHAGWSGLVVGTLSAVTVWVMSLAGVFTLPGQGTAFLAATVGFVADIIVSIVVSLFTEPKPAAELVRLVYSETPKEHLVDPLEKDLPWYRRTVPLGMTVLAITVVLNIIF”, the protein production result is listed as “failed”.

For the sequence “MAYGDKDEVLSVDVGSNAKVMKHLDGDDAMKKAQVRGRSGQEFSKETTKMMMKKTTKKETNVEEEDDLVAYTADYWKPRHHPPKNN”, the protein production result is “failed”.

In the case of “MAYGTYRGLFAPEVAGPLAKLLVLLLVGYGLYQNRHLKSLYLVLLGLLLNALVIFANGGHMPVSPTALHRAGIGEFADLLRDKGDAVHALLDEKTRLPFLGDVIPLPPLRKVVSPGDLFILLGIVGVVVEGALKGGVRLRRRALALRLLLYLAFVLALLALRG”, the protein production entry is recorded as “failed”.

Consider “MAYLAPISSSLSIFKNPQLSRFQFSSSSPNPLFLRPRIQILSMTMNKSPSLVVVAATTAAEKQKKRYPGESKGFVEEMRFVAMRLHTKDQAKEGEKETKSIEERPVAKWEPTVEGYLRFLVDSKLVYDTLELIIQDSNFPTYAEFKNTGLERAEKLSTDLEWFKEQGYEIPEPTAPGKTYSQYLKELAEKDPQAFICHFYNIYFAHSAGGRMIGRKVAERILDNKELEFYKWDGELSQLLQNVREKLNKVAEEWTREEKNHCLEETEKSFKYSGEILRLILS”, for which the protein production entry was “failed”.

In the case of “MCCPPMTSSSSLSHHASQSGQVRLCPGCELPIDAITVDQAHSAHCPRCGTLLYRGGSPSLSGDLALAVTCLLLFIPSHFFSYIDIRLFGVMIPATLPQGVFALWDEGYIALALLVLFCSSIAPLVLCLSVVSAHLALRFRYFQTLRYSLLFIHHLKVWVMIDVFLVSVAVSCFKLKDYSDIFIGPGLLGLVLLQLFTVLLLSRISTRRYWETWQAETEYDLPVKQVHCHNCHLSQPENGHCVRCQHKLYHRKPNSIERTWAYVLAATVAIFPANLIPISILITNGQRLEDTIFSGVASLVKNGMWGIALIIFVASIVVPVIKIIGLAYLLMAIKLKRHVHQRQRMMIYRGIKWIGKWSVMDLFVISIMLTLVDRGQILDFTPGYGAVAFGMVVVLTMLAAESLDPRLLWDEPDSTRTQQ”, the protein production result is given as “failed”.

On to “MCDCLSIILLVKMKKIYLKFVDFWDGFDTISNFIVDALSIQYEVVLSNEPDYLFYSCFGTSHLEYDCIKIMFIGENIVPDFNVCDYAIGFNYIDFGDRYLRLPLYAIYDGFSNLQNKKIDVNKALDRKFCSIVVSNNKWADPIRETFFKLLSSYKKVDSGGRAWNNIGGPVDNKLDFISQYKFNIAFENSRVLGYTTEKIMEPMQVNSIPVYWGNPLVGKDFNVDSFVNAHDFDSLERLVEYIIELDSSKDKYLEMLEKPWLLDKTYLDWKQLLLNFINNIMMKSYKDAKYLVNYGHAGKYRNEQRFWGRCERKFKLQRIIEYYSQLFDRKLEHHHHHH”, for which the protein production entry is on record as “failed”.

Regarding “MCDFISHNKQLFDELDIFIDSLATKEGALIQVLHEAQGIFGYLPKEVQLHVARKLGVAPAKVYGVVTFYSYFTTEPVGKYKISVCLGTVCFVKGADKILSAFEKQLGIKVGETTSDFKFSLEGLRCLGACGLAPVVTVNGKVYGKVKPDQVSEILDTYRELELNC”, the protein production entry was “failed”.

In the case of “MCDQTKHSKCCPAKGNQCCPPQQNQCCQSKGNQCCPPKQNQCCQPKGSQCCPPKHNHCCQPKPPCCIQARCCGLETKPEVSPLNMESEPNSPQTQDKGCQTQQQPHSPQNESRPSK”, the protein production entry is given as “failed”.

As for “MCEIFIRANQRSYSVQARSLRLHGVATSVRLEQLFWDVLEEIAARDGMRVTQLIERLYDELVQYRGEAANFTSFLRVCCLRYQVLQAEGRIPADATVPIRSLDAQAVLRGLPANLYDSRPLG”, the protein production result was “not failed”.

Turning to “MCGLAGWVDYTRKLDDEFPAIFAMTDTLALRGPDAEGIWKHRNALLGHRRLAVIDLSGGVQPMSYRFPTGQEVTLVYTGEVYNHDALRERLRRAGHEFRTRSDTEVVLHAYLQWGERCCEYLTGMFAFAVFDGRDGHLLLVRDRLGIKPLYYARHREGLLFGSEIKSILAHPEFAARLDAVGLVDLLTLSRGTSQTPFREVQELLPGHLLSWRPNSQAKLRRYWEVRRQEHADDLQSTVQRTRELVTRALGAQLHADVPVCSLLSGGLDSTALTGIAQRIAKAEHGGDINSFSVDFVGQAEQFRSDDLRPDQDQPFALLAAQYIGSRHRTVLIDNAELVCERAREEVFRAKDVPFTFGDMDTSLHLMFGEIRRHSTVAISGEGADELFGGYGWFRDPQAVAAARFPWASRVRLPAGFIDAGFNRRCDLLQYQQASYDDGLRQVEHLAGDSPEERRMREFSHLHLKRWMVLLLERKDRLSMCNGLEVRVPYTDHELVEYVYNVPWSIKSRDGEEKWLLKRACADYVPEAVLKRRKSPYPTSANLGYERFLRGSVRRLLEDAVNPVFGIVSREFLAAELEHPEGYFNTQVSRHNLETALALEGWLRLYGLS”, the protein production result was “failed”.

Regarding “MCGTRSSAQTSKTSLCALLLSAAMSLVLAAPASAAADCIAGSKAAPAELITSCSAIIDQAANSSSDRAAALLVRADANARTSGGLTQALRDIDRAIALDGKNAKAWRLRGDLLREAGGDLNRAAADLSKAIELDPQDAESYELRGVVYTSQRRLDRALADYDQAIKLKPGDAQAWSDRGVTYYLGGDNEKAIRDLSEALRLDPNRPRTYTNRGAAYKKLGQLDKSVADAAEAIRLDPKVPEYYDNRGLSLAAMGDYDKAIADYDQALRLAPKPNFFTNRGDSYQFKGEFGAALSDYESALKLDPNFAQTYNNRAVLYKKMGERRKALADYETALKLDPGNDNAANGRRTMIAEIAKFGDEPRRPLAANSGNGPSFDCATAKREVEKVICADPELGVLDRQIAETYERVLKSANRRSAGDLRRTQRDFLATRNSSFGRPGYDLRKVMQERLQRLNAMEG”, the protein production entry is “failed”.

Take “MCIAIPGKMTAIVDENTATIDMGGICRDVNMALMGGAEESMIGKHFLVHVGYAISEISEEESEETMRLLKIMAGLEEIDSFENESQ”: the protein production entry is reported as “failed”.

Consider “MCLAIPSVVIDIFEEDGEKYALAEYKGVKQKAKLALIEGVEIGDYVLIHTGYALEKMSEDEAKLSLDAWEELFDVLDEM”, for which the protein production result is listed as “failed”.

(Values after a protein production outcome set (Wang et al. 2014).)
